Starred links: 1 amine or outer side, 2 acyl side, 3 side chain; linkers in the order of their positions; H or OH if unused. No end group written: not given here. *: point of attachment. code X = linker with the sequence GSGSGSG, O=C(CNC(=O)[C@H](CO)NC(=O)CN[*:1])N[C@@H](CO)C(=O)NCC(=O)N[C@@H](CO)C(=O)NCC(=O)[*:2]; Biotin = O=C1N[C@H]2[C@H](CS[C@H]2CCCCC(=O)*)N1
How the values were obtained:
factor VIII = factor VIII (Homo sapiens, UniProt P00451); assay: Peptide array of Protein C sequence for peptides binding to factor VIII
factor VIII, sequence (P00451 20-2351, species assumed): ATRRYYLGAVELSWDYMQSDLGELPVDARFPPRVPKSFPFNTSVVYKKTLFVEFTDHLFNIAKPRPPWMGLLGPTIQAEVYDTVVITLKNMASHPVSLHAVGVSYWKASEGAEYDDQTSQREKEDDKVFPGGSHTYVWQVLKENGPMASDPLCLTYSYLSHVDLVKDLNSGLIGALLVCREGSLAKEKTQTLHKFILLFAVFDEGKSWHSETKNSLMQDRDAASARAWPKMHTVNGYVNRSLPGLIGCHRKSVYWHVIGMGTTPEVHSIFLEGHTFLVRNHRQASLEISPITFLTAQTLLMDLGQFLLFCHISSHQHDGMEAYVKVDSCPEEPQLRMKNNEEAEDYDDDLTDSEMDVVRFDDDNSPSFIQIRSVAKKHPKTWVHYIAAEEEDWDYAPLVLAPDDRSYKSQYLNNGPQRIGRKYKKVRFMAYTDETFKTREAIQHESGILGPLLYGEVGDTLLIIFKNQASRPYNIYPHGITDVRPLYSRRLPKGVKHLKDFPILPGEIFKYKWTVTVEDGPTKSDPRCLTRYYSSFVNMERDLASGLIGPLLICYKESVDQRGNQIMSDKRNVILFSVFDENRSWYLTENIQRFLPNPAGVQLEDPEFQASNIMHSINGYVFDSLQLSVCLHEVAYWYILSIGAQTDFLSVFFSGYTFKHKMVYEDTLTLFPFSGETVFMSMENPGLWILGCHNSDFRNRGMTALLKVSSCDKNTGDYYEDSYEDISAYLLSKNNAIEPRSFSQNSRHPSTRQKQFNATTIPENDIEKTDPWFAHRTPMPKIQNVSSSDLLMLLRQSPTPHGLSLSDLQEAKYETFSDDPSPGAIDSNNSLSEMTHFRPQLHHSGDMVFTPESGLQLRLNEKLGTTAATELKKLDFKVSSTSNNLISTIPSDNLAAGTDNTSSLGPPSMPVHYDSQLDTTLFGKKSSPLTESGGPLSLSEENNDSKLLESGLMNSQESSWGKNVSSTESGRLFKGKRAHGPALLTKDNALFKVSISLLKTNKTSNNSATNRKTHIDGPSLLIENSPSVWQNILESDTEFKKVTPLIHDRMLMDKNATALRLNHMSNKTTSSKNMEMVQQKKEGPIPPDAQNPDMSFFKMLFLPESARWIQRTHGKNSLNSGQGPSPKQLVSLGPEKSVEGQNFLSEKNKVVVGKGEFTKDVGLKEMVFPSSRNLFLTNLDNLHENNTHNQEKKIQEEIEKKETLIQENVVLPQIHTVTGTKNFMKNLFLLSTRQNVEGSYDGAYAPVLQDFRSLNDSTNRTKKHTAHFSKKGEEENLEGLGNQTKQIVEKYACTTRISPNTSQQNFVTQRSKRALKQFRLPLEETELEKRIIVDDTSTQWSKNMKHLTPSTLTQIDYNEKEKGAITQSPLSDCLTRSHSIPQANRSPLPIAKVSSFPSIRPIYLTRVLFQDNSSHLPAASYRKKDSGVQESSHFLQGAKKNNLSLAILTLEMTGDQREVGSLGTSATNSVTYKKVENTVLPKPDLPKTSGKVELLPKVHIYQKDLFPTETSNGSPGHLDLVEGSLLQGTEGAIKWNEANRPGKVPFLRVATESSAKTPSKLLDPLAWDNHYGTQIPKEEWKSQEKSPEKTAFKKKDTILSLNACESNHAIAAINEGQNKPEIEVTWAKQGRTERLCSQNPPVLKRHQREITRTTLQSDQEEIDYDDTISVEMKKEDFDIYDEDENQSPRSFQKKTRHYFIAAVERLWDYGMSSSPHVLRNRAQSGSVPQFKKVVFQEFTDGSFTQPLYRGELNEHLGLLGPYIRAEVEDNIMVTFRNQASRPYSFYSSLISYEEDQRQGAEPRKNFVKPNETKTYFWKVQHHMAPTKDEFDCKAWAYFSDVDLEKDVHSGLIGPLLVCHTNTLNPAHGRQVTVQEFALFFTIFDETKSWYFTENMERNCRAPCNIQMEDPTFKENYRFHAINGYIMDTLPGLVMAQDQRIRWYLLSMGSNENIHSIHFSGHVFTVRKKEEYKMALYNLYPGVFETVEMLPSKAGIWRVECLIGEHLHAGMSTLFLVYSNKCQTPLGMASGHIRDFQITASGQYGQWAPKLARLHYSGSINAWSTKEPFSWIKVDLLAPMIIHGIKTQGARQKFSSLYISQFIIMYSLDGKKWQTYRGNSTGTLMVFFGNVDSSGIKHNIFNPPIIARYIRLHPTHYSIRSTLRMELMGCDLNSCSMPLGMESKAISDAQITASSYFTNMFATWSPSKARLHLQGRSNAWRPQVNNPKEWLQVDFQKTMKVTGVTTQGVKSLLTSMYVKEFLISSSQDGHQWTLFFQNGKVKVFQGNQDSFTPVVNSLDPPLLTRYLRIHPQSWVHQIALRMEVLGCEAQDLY
Excerpt: (§1) In this manner, the sequences of Protein A, Protein G, Protein H and FcRn were investigated for peptides binding to IgG. In addition, the sequence of Protein C was investigated for peptides binding to factor V and factor VIII.

factor V = factor V (Homo sapiens, UniProt P12259); assay: Peptide array of Protein C sequence for peptides binding to factor V
factor V, sequence (P12259 29-2224): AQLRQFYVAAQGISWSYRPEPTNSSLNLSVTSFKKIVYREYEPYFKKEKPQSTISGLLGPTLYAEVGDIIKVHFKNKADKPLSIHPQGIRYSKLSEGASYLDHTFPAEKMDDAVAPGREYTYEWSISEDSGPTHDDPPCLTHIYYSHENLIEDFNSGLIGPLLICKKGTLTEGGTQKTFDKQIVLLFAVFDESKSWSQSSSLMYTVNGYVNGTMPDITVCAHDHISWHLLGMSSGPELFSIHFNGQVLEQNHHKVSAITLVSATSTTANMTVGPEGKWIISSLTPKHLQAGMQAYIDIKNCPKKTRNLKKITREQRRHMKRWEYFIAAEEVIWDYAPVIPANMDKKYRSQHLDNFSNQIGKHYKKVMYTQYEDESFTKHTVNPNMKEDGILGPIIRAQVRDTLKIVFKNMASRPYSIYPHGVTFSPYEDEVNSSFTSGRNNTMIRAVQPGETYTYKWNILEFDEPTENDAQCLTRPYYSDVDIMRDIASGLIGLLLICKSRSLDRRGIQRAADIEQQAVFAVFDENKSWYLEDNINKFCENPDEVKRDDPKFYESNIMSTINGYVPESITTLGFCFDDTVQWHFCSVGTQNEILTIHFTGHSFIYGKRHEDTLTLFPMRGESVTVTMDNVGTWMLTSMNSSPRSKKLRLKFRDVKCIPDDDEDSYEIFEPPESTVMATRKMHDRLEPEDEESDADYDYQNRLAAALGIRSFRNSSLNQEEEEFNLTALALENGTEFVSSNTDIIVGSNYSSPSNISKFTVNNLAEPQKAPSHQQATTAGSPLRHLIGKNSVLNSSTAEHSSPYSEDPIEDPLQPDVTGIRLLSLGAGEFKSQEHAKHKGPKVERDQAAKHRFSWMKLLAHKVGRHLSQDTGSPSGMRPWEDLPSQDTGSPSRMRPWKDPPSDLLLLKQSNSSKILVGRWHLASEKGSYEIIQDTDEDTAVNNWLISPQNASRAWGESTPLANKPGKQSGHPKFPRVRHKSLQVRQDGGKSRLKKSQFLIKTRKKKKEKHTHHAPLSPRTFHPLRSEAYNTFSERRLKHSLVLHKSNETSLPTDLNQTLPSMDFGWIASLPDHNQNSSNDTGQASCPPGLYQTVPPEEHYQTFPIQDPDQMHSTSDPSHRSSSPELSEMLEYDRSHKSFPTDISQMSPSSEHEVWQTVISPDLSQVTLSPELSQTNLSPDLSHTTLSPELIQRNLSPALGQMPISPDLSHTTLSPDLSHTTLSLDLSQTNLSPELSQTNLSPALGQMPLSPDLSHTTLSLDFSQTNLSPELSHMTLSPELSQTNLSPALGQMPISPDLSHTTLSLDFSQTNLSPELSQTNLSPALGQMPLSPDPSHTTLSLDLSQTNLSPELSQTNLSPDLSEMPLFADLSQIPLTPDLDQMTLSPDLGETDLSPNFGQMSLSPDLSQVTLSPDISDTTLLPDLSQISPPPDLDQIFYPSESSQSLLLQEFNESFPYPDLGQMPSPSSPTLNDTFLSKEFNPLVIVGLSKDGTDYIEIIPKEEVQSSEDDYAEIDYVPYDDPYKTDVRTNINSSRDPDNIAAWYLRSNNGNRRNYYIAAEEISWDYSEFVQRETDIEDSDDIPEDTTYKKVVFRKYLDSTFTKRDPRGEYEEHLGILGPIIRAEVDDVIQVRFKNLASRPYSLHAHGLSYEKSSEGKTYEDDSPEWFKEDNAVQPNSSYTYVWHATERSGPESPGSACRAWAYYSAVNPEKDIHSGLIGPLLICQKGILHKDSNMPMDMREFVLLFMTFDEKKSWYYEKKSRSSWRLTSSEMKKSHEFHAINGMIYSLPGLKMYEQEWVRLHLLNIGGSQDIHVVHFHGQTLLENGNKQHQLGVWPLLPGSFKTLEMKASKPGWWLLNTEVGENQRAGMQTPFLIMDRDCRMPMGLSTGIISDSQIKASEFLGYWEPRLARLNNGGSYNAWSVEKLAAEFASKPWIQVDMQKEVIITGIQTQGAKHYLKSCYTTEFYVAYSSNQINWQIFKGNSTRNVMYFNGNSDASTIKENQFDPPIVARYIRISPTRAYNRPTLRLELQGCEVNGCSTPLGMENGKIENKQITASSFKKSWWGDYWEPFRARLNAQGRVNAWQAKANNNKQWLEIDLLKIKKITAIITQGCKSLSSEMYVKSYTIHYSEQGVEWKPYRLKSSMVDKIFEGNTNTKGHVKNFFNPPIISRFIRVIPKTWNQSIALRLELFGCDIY
Excerpt: as §1

factor V or factor VIII = assay: Peptide array of Protein C sequence, binding affinity towards factor V or factor VIII; details: compared with sequences i) to iii)
Excerpt: as §1

IgG = IgG binding to and release from peptide-modified streptavidin latex particles, bound and eluted IgG analysed by ELISA

Substance	binding to factor VIII (factor VIII)	binding to factor V (factor V)	binding affinity towards factor V or factor VIII (factor V or factor VIII)	further results
HNYGVYTKVSRYL	not significantly binding			
GDSGGPMVASFHG		not significantly bind		selectivity for factor VIII (factor VIII; versus factor V): high selectivity
TGWGYHSSREKEA [v)]			weaker	
bio-X-QQQLITIKQISEASRKSLSRD ({Biotin-code X}-QQQLITIKQISEASRKSLSRD) [Peptide 2, biotin-labelled peptide; bio = biotin, X = linker GSGSGSG]				IgG bound (IgG; 10 mg peptide-modified latex, 400 μl of 0.22 mg/ml IgG, 1 h room temperature): 55 µg; IgG Elution (IgG; 400 μl 25 mM acetate buffer pH 3.0, 1 h room temperature): 52 µg; Recovery [IgG] (IgG; eluted relative to bound IgG): 95%

Second part, led by results:

binding to factor VIII (factor VIII)	binding to factor V (factor V)	binding affinity towards factor V or factor VIII (factor V or factor VIII)	Substance	further results
binds equally strong	binds equally strong		LEGYDLRRWEKWE	
		weaker	FVHPNYSKSTTDNDIALLH [iv)]	

— US20160067674A1, “LIGANDS AND METHODS FOR ISOLATING OR REMOVING PROTEINS” (PreviPharma AG, priority 2014, published 2016)
